By Kd is commonly meant a measure of binding affinity in units of concentration.

Test [1] concerns the target Bacillus subtilis Rel N-terminal domain region (RelBs^NTD; residues 1 to 373) (Bacillus subtilis). Nature of the test: ITC; DarB or DarB variants in the syringe at 200 μM, RelBs^NTD or variants in the cell at 15 μM; 25°C; 50 mM Hepes pH 7.5, 500 mM KCl, 500 mM NaCl, 10 mM MgCl2, 1 mM TCEP, 0.002% mellitic acid.
For test [2], the target named is RelBs^NTD Y279A (B. subtilis). The test can be described thus: ITC; DarB or DarB variant (200 uM) in the syringe titrated into RelBs^NTD or variant (15 uM) in the cell; 25 °C; 50 mM Hepes pH 7.5, 500 mM KCl, 500 mM NaCl, 10 mM MgCl2, 1 mM TCEP, 0.002% mellitic acid.
In test [3] the target is Rel (Bacillus subtilis) (UniProt O54408). The conditions noted are these: cited from earlier work.

For “Bacillus subtilis DarB (from UniProt O31698 1-147) (natural protein)”, the Kd was 1.4 µM in test [1] and 4 µM in test [2].
Regarding DarB (from UniProt O31698), the Kd in test [3] was 0.65 µM.
